In patent CN108059680A (BEIJING DONGFANG BIOTECH CO LTD, dated 2018):

Target: T1, CD20 (UniProt P11836 1-297, limits assumed)
T1 construct: whole, on cells; also called 细胞表面CD20; Raji细胞(过表达CD20细胞系)
T1 sequence (looked up): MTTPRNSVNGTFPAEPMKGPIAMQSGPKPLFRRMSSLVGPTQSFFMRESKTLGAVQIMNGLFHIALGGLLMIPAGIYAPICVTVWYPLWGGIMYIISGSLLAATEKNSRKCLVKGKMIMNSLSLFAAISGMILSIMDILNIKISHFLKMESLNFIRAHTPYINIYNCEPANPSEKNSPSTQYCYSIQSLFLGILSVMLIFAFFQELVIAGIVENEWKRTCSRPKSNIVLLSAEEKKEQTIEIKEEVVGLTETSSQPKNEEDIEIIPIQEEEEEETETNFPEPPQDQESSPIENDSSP
Test: flow cytometry on Raji cells (CD20-overexpressing), Alexa488 anti-human IgG-Fc detection

B1: JY052 (bispecific antibody, human IgG4 S228P, kappa)
light: DIVMTQTPLSLPVTPGEPASISCRSSKSLLHSNGITYLYWYLQKPGQSPQLLIYQMSNLVSGVPDRFSGSGSGTDFTLKISRVEAEDVGVYYCAQNLELPYTFGGGTKVEIKRTVAAPSVFIFPPSDEQLKSGTASVVCLLNNFYPREAKVQWKVDNALQSGNSQESVTEQDSKDSTYSLSSTLTLSKADYEKHKVYACEVTHQGLSSPVTKSFNRGEC
heavy: QVQLVQSGAEVKKPGSSVKVSCKASGYAFSYSWINWVRQAPGQGLEWMGRIFPGDGDTDYNGKFKGRVTITADKSTSTAYMELSSLRSEDTAVYYCARNVFDGYWLVYWGQGTLVTVSSASTKGPSVFPLAPCSRSTSESTAALGCLVKDYFPEPVTVSWNSGALTSGVHTFPAVLQSSGLYSLSSVVTVPSSSLGTKTYTCNVDHKPSNTKVDKRVESKYGPPCPPCPAPEFLGGPSVFLFPPKPKDTLMISRTPEVTCVVVDVSQEDPEVQFNWYVDGVEVHNAKTKPREEQFNSTYRVVSVLTVLHQDWLNGKEYKCKVSNKGLPSSIEKTISKAKGQPREPQVYVLPPSQEEMTKNQVSLLCLVKGFYPSDIAVEWESNGQPENNYLTWPPVLDSDGSFFLYSRLTVDKSRWQEGNVFSCSVMHEALHNHYTQKSLSLSLG
chain: not shown
notes: Three-chain bispecific: anti-CD20 light-heavy pair plus anti-CD3 single-chain Fab-Fc, joined by hinge disulfides and a knob-into-hole structure in CH3; also called 抗CD20×CD3的双特异抗体; 针对CD20和CD3的双特异性抗体
binding result: binds
